Results on 29 sequences are retold here after the supplement of paper PMC9170038.

In this data set the test system is MS2 coat protein. In words: apparent KD of MS2 coat protein; designed switch direction (-1 OFF switch, 1 ON switch): -1; higher = weaker reporter binding. In a few lines: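 Designed RNA switches with common flanks were made on Illumina chips by stalled E. coli RNA polymerase. Titration with SNAP-549-labelled MS2 coat protein doubled from 0.7 or 1.5 nM up to 3 µM. Apparent KD is each design's median over clusters after curve-fitting normalised fluorescence.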

[1] abbreviates: Eterna round: R95, input ligand: FMN 200 uM.
Where [2] appears, read: Eterna round: R95, input ligand: microRNA oligo, concentration not stated.
The mark [3] stands for this setting: Eterna round: R95, input ligand: none.
Where [4] appears, read: input ligand: microRNA oligo, concentration not stated.

Consider “UGUACGAUGCGUGCUGACAUGCGUCGUGCAGCAGGUGAUACAUGAGGAUCACCCAUGUCCUCAUUUGCUCGUCUUGA [Mat - Sensor v3 - Turn-off var 2 - D20] (puzzle: Sensor v3, turn-off variant 2)”, for which the “apparent KD of MS2 coat protein” value stood at 68.5 nM under setting [1], 475 nM under setting [2] and 75.2 nM under setting [3].

Turning to “UGUACUAACACGAUAGUGUUAGUACAAUAAGCUUGUGUUACAUGAGGAUCACCCAUGUCCUCAUAAGCUCGUCUUAU [Mat - Sensor v3 - Turn-off var 2 - D55] (puzzle: Sensor v3, turn-off variant 2)”, the “apparent KD of MS2 coat protein” value came out at 109 nM under setting [1], 141 nM under setting [2] and 105 nM under setting [3].

For the sequence “UGUACUAACACGAUAGUGUUAGUACUAUAAGCUUGUGUUACAUGAGGAUCACCCAUGUCCUCAUAGGCUCGUCUUAU [Mat - Sensor v3 - Turn-off var 2 - D87] (puzzle: Sensor v3, turn-off variant 2)”, the “apparent KD of MS2 coat protein” value was found to be 646 nM under setting [1], 47.5 nM under setting [2] and 446 nM under setting [3].

“UGUACUAUGCGAGCUGACUUGCGUAGUGCAGCAAGUGAAACAUGAGGAUCACCCAUGUCCUCAUUUGCUCGUCUUAU [SL-sv3-2.01 JL mod] (puzzle: Sensor v3, turn-off variant 2)”: the “apparent KD of MS2 coat protein” value worked out at 23.3 nM under setting [1], 337 nM under setting [2] and 22 nM under setting [3].

Take “UGUACUAUGCGAGCUGACUUGCGUAGUGCAGCAGGUGUAACAUGAGGAUCACCCAUGUCCUCAUUUGCUCGUCUUAU [SL-sv3-2.05 JL mod] (puzzle: Sensor v3, turn-off variant 2)”: the “apparent KD of MS2 coat protein” value is 347 nM under setting [1], 297 nM under setting [2] and 414 nM under setting [3].

“UGUACUAUGCGUGCUGACAUGCGUAGUGCAGCAGGUGUAACAUGAGGAUCACCCAUGUCCUCAUUUGCUCGUCUUAA [Mat - Sensor v3 - Turn-off var 2 - D14] (puzzle: Sensor v3, turn-off variant 2)”: the “apparent KD of MS2 coat protein” value under setting [1] is 207 nM and the “apparent KD of MS2 coat protein” value under setting [2] came out at 335 nM.

With “UGUACUAUGCGUGCUGACAUGCGUAGUGCAGCAGGUGUUACAUGAGGAUCACCCAUGUCCUCAUUUGCUCGUCUUAA [Mat - Sensor v3 - Turn-off var 2 - D17] (puzzle: Sensor v3, turn-off variant 2)”, the “apparent KD of MS2 coat protein” value runs as follows: under setting [1], 205 nM; under setting [2], 219 nM; under setting [3], 177 nM.

Consider “UGUAGAGUGGUAGGAUAUCCGUCUGUUUCAGUCGGAGAAGGACCACAGUCACUGGGUCCAUGUUUCAUGGAGACCUGAUCUACU [pwkr exNG1 F6.10] (Eterna round: R96, puzzle: Exclusion NG 1)”, for which the “apparent KD of MS2 coat protein” value by setting is: (input ligand: FMN 200 uM) 185 nM; under setting [4], 49 nM; (input ligand: none) 195 nM.

As to “UGUAGAGUGGUAGGAUAUCCGUCUGUUUCAGUCGGAGAAGGACCACAGUCACUGGGUCCUUAUAUGGGUGACCAUGUAUCUACU [pwkr exNG1 F6.5] (Eterna round: R96, puzzle: Exclusion NG 1)”, the “apparent KD of MS2 coat protein” value turned out to be 652 nM (input ligand: FMN 200 uM), 303 nM under setting [4] and 369 nM (input ligand: none).

Regarding “UGUAGAUCUACGCUUGCGUGGAUCUGCUUAGCAAGUGAUACAUGAGGAUCACCCAUGUCCUCAUUUGCUCGUCUUAU [JL turnoff v2 99.01] (puzzle: Sensor v3, turn-off variant 2)”, the “apparent KD of MS2 coat protein” value by setting is: under setting [1], 15.7 nM; under setting [2], 212 nM; under setting [3], 14 nM.

In the case of “UGUCAGAUGGUAGGAUAUCCAUAUCGAGUGACCCUUUCAUAACAUGAGGAUCACCCAUGUCGGUGGGAGAAGGGCUGUAUGGUG [salish99_ExNG02_R04_025] (Eterna round: R96, puzzle: Exclusion NG 2)”, the “apparent KD of MS2 coat protein” value came out at 26.8 nM (input ligand: FMN 200 uM), 19.1 nM under setting [4] and 24.6 nM (input ligand: none).

“UGUCAGAUGGUAGGAUAUCCAUAUCGAGUGACCCUUUCCUAACAUGAGGAUCACCCAUGUCGGUGGGAGAAGGGCCGUAUGGUG [salish99_ExNG02_R04_033] (Eterna round: R96, puzzle: Exclusion NG 2)”: the “apparent KD of MS2 coat protein” value was found to be 11.1 nM (input ligand: FMN 200 uM), 14.2 nM under setting [4] and 15.2 nM (input ligand: none).

As to “UGUCAGAUGGUAGGAUAUCCAUAUCGAGUGACUCUUUCAUAACAUGAGGAUCACCCAUGUCGGUGGGAGAAGGGCCGUAUGGUG [salish99_ExNG02_R04_027] (Eterna round: R96, puzzle: Exclusion NG 2)”, the “apparent KD of MS2 coat protein” value came to 22.9 nM (input ligand: FMN 200 uM), 14.5 nM under setting [4] and 25.2 nM (input ligand: none).

Take “UGUCAGAUGGUAGGAUAUCCAUAUCGCGUGUCCCUUUCCUAACAUGAGGAUCACCCAUGUCGGUGGGAGAAGGGCCGUAUGGUG [salish99_ExNG02_R04_035] (Eterna round: R96, puzzle: Exclusion NG 2)”: under setting [4], the “apparent KD of MS2 coat protein” value came to 9.49 nM.

As for “UGUCUUCAUAUCACAUGAGGAUCACCCAUGUUAUUCAUCUCGUAGGAUAUCGAGGUUUUUUAUUUCGAGAAGGACGUAUUGUUU [JR_ExcNG3_Sub077] (Eterna round: R96, puzzle: Exclusion NG 3)”, the “apparent KD of MS2 coat protein” value is, setting by setting: (input ligand: FMN 200 uM) 215 nM; under setting [4], 135 nM; (input ligand: none) 153 nM.

For the sequence “UGUGCGUAUGUGAGGAUAUGCUGGUCCUUGGAUCGGCAGAAGGCACAUGAGGAUCACCCAUGUGGUGUCGUUCA [salish99_Bmod_ex4_098] (puzzle: Brourd's mod of Exclusion 4)”, the “apparent KD of MS2 coat protein” value under setting [2] was 208 nM.

Take “UGUGCGUAUGUGAGGAUAUGCUGGUCCUUGGCUCGGCAGAAGGCACAUGAGGAUCACCCAUGUGGUGUCGUACU [salish99_Bmod_ex4_067] (puzzle: Brourd's mod of Exclusion 4)”: the “apparent KD of MS2 coat protein” value under setting [2] came out at 75.6 nM.

As for “UGUGUAACGGAGGAUAUAGGACUUCAACGAAGACUAGAAGGCCGAACAUGAGGAUCACCCAUGUGGUCCUCCGU [Dicesoqu] (puzzle: Exclusion 6)”, the “apparent KD of MS2 coat protein” value under setting [2] came out at 13.2 nM.

On to “UGUGUACGAGGAUAUAGAUGGAAUGACAUGAGGAUCACCCAUGUGAUCGAUCUAUUGGGUUUAGAAGGUGUAUAUA [JR_Ex5_Sub047] (Eterna round: R97, puzzle: Exclusion 5)”, for which the “apparent KD of MS2 coat protein” value reads like this: (input ligand: FMN 200 uM) 27.7 nM; (input ligand: none) 34.4 nM.

As for “UGUGUGAGACAGGAUAUGCUGGAUGAAAGGCAGGUAGAAGGGUCUACAUGAGGAUCACCCAUGUGGCCGGUUGG [Ex6 #73] (Eterna round: R97, puzzle: Exclusion 6)”, the “apparent KD of MS2 coat protein” value was 20.6 nM (input ligand: FMN 200 uM) and 20.4 nM (input ligand: none).

For “UGUGUGAGACAGGAUAUGCUGGAUGUGAGGCGGGUAGAAGGGUCUACAUGAGGAUCACCCAUGUGGCCGGUUGG [Ex6 #70] (Eterna round: R97, puzzle: Exclusion 6)”, the “apparent KD of MS2 coat protein” value runs as follows: (input ligand: FMN 200 uM) 19.4 nM; (input ligand: none) 17.3 nM.

In the case of “UGUGUGUGAGGAUAUACAAUGGGCCCGGGAAACCGGGCCCUACAUGAGGAUCACCCAUGUAGAAGGCGCGCGCG [-39.6, -37.5 kcal A 24%, 0,6bis] (Eterna round: R97, puzzle: Exclusion 2)”, the “apparent KD of MS2 coat protein” value (input ligand: FMN 200 uM) is 47.2 nM and the “apparent KD of MS2 coat protein” value (input ligand: none) was found to be 73.6 nM.

For the sequence “UGUGUGUGAGGAUAUACAAUUGUGUGUGGAAACGCGCGCGUACAUGAGGAUCACCCAUGUAGAAGGCGCGCGCG [-30.7, -27.4 kcal A 24%, 6bis,6bis] (Eterna round: R97, puzzle: Exclusion 2)”, the “apparent KD of MS2 coat protein” value reads like this: (input ligand: FMN 200 uM) 18.4 nM; (input ligand: none) 17.9 nM.

Regarding “UGUUAUAGAGGAUAUGCGUGAAAAUAGAUUCAUGGAAAUUUACAUGAGGAUCACCCAUGUAGAAGGCUGUGAUU [LRO-Excl2-15-mod 090 by JR] (Eterna round: R97, puzzle: Exclusion 2)”, the “apparent KD of MS2 coat protein” value (input ligand: FMN 200 uM) is 14.8 nM and the “apparent KD of MS2 coat protein” value (input ligand: none) was 14.7 nM.

With “UGUUAUAGAGGAUAUGCGUGAAUAUAGAUUCAUGGAAAUUUACAUGAGGAUCACCCAUGUAGAAGGCUGUGUUU [LRO-Excl2-17-mod 090 by JR] (Eterna round: R97, puzzle: Exclusion 2)”, the “apparent KD of MS2 coat protein” value was determined as 14.6 nM (input ligand: FMN 200 uM) and 15.6 nM (input ligand: none).

On to “UGUUCGUCAGGAUAUUCUACUUAUUACAUGAGGAUCACCCAUGUGUAUGUACAAGGGUGUGAAGAAGGGACUUGUU [LRO-Excl5-08-mod A17d by Omei] (Eterna round: R97, puzzle: Exclusion 5)”, for which the “apparent KD of MS2 coat protein” value reads like this: (input ligand: FMN 200 uM) 245 nM; (input ligand: none) 885 nM.

In the case of “UGUUGGCGAGGAUAUACAUGAGGAUCACCCAUGUGAGAGAAAAAAGUGAGGAAGAAAAGUAGAAGGCGCUGACU [salish99_ex3_r3_044] (puzzle: Exclusion 3)”, the “apparent KD of MS2 coat protein” value is, setting by setting: under setting [1], 254 nM; under setting [2], 44 nM; under setting [3], 51.8 nM.

In the case of “UGUUGUCACGCAGGAUAUGUAUGAGGAUCACCCAUUAAUAAAUUUUAACCACGAGGAUCACCCGUGUAGAAGGGCGGGACAACA [pwkr exNG2 2xF5 1xFMN.14] (Eterna round: R96, puzzle: Exclusion NG 2)”, the “apparent KD of MS2 coat protein” value (input ligand: FMN 200 uM) was found to be 30.6 nM, the “apparent KD of MS2 coat protein” value under setting [4] turned out to be 20.1 nM and the “apparent KD of MS2 coat protein” value (input ligand: none) was 29.9 nM.

As to “UGUUGUCGCGCAGGAUAUGAGGAUCACCCAUAGAAGGAUAUCGAAAGAGAAGGUCUGAGGAUUACCCAGAAGGGCGGGACAACU [pwkr exNG2 2xF5 2xFMN.13] (Eterna round: R96, puzzle: Exclusion NG 2)”, the “apparent KD of MS2 coat protein” value was 807 nM (input ligand: FMN 200 uM), 133 nM under setting [4] and 137 nM (input ligand: none).
